Experimental data reported in PMC5117854, “Functional asymmetry and electron flow in the bovine respirasome” (eLife, 2016).

T1: subunit 1 of complex III (bovine (endogenous in heart …, UniProt P31800 35-480))
T1 construct: complex III subunit 1, bovine heart; stood in the assay as a subunit of the complex III dimer within the respirasome; also called subunit 1 of the bc1 complex; source: endogenous, bovine heart mitochondria; part of the supercomplex I1III2IV1 purified in amphipol A8-35
T1 sequence (looked up): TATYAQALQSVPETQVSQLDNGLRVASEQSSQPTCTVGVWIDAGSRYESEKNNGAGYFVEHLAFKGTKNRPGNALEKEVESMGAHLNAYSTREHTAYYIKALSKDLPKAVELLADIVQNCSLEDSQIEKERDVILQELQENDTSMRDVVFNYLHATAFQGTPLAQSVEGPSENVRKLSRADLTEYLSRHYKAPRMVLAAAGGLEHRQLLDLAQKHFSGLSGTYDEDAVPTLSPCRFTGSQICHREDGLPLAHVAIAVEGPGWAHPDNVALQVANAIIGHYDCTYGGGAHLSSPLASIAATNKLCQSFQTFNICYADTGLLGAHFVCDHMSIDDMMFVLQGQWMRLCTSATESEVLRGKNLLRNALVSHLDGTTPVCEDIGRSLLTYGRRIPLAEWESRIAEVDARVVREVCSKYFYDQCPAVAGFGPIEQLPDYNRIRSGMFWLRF


Assays:
subunit ND5 of complex I = target: T2, subunit ND5 of complex I (bovine (endogenous in heart …, UniProt P03920 1-606)); test: cryo-EM structure; class 1 map of supercomplex I1III2IV1 (17,094 particles, 9.1 Å; transmembrane region 8.6 Å); native supercomplex co-purified from bovine heart mitochondria (PCC-a-M, then amphipol A8-35, density gradient); atomic models of complexes I, III and IV docked; conditions: both partners purified
T2 construct: complex I core subunit ND5, bovine heart; stood in the assay as a subunit of complex I within the respirasome; source: endogenous, bovine heart mitochondria; part of the supercomplex I1III2IV1 purified in amphipol A8-35

subunit 1 of complex III = target: T1, subunit 1 of complex III; test: as above; conditions: both partners purified

T2 sequence (P03920 whole entry, one chain of several): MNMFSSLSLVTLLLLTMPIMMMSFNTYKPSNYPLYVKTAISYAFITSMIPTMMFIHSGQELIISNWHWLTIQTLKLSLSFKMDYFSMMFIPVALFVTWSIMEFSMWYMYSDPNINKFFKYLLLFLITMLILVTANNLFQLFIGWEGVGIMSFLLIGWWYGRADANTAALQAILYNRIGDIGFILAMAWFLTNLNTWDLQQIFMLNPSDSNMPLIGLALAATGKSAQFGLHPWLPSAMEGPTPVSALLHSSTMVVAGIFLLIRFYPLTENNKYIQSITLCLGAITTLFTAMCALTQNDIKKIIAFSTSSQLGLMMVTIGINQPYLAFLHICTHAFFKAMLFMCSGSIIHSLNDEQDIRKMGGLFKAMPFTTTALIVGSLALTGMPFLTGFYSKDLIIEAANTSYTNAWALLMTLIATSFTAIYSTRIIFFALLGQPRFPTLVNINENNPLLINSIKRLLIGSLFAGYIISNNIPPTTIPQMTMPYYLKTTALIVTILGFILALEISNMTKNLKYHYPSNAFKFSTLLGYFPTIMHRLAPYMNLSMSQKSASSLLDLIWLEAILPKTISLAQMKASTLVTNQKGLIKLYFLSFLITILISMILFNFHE

Row | binding result (subunit 1 of complex III) | Binder | binding result (subunit ND5 of complex I)
1 |  | SHYEEGPGKNIPFSVENKWRLLAMMTLFFGSGFAAPFFIVRHQLLKK (natural protein, UniProt P00430 17-63, looked up, complex IV subunit COX7C, bovine heart; stood in the assay as a subunit of complex IV within the respirasome; source: endogenous, bovine heart mitochondria; part of the supercomplex I1III2IV1 purified in amphipol A8-35) [complex IV subunit COX7C] | binds
2 | binds | COX7A1 of cytochrome c oxidase (complex IV) (natural protein, UniProt P07470 22-80, looked up, complex IV subunit COX7A1, bovine heart; stood in the assay as a subunit of complex IV within the respirasome; source: endogenous, bovine heart mitochondria; part of the supercomplex I1III2IV1 purified in amphipol A8-35) FENRVAEKQKLFQEDNGLPVHLKGGATDNILYRVTMTLCLGGTLYSLYCLGWASFPHKK | 
